Experimental data taken from PMC3554283 (Diabetes Care, 2013).

Assays:
[1] = test system: healthy volunteers; test: Eight-hour euglycemic glucose clamp; format: in vivo, human; details: mean ± SD; 0.15 units/kg s.c.; 14 healthy volunteers; 8-h euglycemic clamp
[2] = Serum insulin pharmacokinetics after subcutaneous injection; format: in vivo, human; details: 0.15 units/kg s.c., 14 healthy volunteers

With insulin glulisine the “onset of action (early T50% GIRmax)” value [1] was 47 ± 19 min, the “time to 50% glucose infused” value [1] was 183 ± 34 min and the “onset (early t50%) of exposure” value [2] was 21 min. The tmax [2] was 1.33 h.
